Earlier results on one substance are cited in publication PMC6214620.

For the data set, the system named is Lys53. The following applies: ferric; His-Fe-Lys converting to a water-bound, lysine-deligated state.

On to “Truncated hemoglobin THB1 (Chlamydomonas reinhardtii)”, for which the pKa is recorded as ~ 6.5.
